These results are taken from patent US12427210B2, “Compounds comprising a fibroblast activation protein ligand and use thereof” (priority 2019, dated 2025).

What all share (experiment): radioligand displacement, compound at 10 µM
Common to all, as to details: remark: other sources report otherwise

Test [1] has as its target H1 (h) (human), P35367.
In test [2] the target is T1, M2 (h) (human), P08172.
T1 chain: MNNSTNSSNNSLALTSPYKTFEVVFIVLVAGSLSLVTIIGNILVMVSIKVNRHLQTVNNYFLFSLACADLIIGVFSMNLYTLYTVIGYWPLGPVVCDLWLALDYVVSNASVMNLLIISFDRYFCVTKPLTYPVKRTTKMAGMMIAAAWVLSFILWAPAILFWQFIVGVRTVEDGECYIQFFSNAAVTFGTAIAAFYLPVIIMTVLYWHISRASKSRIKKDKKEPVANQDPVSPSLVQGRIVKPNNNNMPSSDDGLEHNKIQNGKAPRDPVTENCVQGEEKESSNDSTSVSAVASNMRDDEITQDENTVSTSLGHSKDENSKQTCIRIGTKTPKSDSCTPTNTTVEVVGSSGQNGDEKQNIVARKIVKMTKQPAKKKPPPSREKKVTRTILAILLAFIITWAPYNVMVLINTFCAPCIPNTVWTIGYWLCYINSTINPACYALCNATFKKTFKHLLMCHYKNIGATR

Test [3] has as its target T2, GR (h) (human), P04150.
T2 chain: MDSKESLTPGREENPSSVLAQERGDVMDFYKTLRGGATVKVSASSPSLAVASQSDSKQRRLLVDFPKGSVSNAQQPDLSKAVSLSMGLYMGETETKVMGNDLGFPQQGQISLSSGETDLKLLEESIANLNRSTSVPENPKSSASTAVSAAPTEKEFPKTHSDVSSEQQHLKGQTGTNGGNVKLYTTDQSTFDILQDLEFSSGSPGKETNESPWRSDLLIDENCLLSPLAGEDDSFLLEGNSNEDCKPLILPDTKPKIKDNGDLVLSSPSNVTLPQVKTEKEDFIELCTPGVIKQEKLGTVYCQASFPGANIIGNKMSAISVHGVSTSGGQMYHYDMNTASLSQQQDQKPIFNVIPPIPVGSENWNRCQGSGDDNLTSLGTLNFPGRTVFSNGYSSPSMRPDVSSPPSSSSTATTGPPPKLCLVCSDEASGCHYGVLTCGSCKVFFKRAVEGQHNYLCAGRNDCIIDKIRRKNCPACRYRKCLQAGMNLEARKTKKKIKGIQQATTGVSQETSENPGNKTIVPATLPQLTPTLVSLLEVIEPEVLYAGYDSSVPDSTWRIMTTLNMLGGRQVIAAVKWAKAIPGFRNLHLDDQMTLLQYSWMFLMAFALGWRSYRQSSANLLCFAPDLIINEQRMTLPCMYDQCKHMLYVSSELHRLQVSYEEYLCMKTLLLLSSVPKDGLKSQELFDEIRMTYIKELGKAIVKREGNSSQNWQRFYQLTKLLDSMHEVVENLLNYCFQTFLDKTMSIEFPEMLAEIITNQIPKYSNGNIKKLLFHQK

Test [4] deals with norepinephrine transporter (h) (human), P23975.
Chain of norepinephrine transporter (h) (human), P23975 (P23975 whole entry): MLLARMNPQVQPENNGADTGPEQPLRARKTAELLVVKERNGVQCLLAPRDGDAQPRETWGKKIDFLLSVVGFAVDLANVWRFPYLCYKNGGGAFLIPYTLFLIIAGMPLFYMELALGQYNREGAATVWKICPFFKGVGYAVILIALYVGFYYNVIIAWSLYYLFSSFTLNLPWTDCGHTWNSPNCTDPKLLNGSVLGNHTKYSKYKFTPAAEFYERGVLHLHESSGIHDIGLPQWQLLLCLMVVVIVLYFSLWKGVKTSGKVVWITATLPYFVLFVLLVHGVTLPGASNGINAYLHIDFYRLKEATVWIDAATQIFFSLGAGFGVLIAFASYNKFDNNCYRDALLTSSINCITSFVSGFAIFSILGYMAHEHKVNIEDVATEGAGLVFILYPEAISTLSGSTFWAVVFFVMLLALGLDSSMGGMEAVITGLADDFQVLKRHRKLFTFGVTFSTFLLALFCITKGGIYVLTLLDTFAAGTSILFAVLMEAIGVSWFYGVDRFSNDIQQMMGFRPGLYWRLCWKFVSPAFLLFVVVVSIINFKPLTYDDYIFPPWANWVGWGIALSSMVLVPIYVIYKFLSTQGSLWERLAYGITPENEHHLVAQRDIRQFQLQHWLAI
Test [5] deals with T3, AR (h) (human), P10275.
T3 chain: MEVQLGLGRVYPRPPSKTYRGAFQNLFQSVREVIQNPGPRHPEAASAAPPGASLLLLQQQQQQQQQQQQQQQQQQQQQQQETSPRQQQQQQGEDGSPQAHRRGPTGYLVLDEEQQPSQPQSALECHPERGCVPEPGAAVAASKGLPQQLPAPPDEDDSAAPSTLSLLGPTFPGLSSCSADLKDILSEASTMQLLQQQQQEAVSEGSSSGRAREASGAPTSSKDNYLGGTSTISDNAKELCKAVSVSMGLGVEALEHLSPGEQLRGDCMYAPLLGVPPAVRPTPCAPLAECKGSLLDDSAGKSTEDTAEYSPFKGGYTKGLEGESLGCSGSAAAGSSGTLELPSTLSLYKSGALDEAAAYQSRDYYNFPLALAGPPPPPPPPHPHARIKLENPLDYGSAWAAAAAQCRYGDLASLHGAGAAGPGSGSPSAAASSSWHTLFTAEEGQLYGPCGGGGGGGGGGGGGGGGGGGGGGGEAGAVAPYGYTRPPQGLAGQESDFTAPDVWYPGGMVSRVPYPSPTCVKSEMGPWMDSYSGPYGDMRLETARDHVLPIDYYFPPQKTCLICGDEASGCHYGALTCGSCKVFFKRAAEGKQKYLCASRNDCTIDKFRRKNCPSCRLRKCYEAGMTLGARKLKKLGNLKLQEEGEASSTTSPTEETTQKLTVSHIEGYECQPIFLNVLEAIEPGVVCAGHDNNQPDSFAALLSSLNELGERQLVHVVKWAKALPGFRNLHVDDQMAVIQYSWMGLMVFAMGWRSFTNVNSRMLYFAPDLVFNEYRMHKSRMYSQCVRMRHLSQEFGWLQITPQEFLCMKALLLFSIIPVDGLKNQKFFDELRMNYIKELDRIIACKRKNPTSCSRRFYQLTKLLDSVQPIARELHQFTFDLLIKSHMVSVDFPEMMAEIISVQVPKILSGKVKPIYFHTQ

Test [6] addresses V1a (h) (human), P37288.
Test [7] deals with T4, ETA (h) (human), P25101.
T4 chain: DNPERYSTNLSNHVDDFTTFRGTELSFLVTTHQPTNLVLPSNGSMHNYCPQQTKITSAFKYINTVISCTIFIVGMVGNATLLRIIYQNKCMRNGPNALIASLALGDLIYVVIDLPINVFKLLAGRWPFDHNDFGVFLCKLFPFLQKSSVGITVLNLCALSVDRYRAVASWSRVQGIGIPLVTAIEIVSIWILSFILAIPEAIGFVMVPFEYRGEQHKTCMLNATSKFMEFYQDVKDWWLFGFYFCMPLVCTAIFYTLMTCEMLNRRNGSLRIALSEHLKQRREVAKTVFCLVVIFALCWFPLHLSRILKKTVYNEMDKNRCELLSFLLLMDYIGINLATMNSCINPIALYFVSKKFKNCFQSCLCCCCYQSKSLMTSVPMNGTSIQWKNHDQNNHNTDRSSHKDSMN

Chain of H1 (h) (human), P35367 (P35367 whole entry): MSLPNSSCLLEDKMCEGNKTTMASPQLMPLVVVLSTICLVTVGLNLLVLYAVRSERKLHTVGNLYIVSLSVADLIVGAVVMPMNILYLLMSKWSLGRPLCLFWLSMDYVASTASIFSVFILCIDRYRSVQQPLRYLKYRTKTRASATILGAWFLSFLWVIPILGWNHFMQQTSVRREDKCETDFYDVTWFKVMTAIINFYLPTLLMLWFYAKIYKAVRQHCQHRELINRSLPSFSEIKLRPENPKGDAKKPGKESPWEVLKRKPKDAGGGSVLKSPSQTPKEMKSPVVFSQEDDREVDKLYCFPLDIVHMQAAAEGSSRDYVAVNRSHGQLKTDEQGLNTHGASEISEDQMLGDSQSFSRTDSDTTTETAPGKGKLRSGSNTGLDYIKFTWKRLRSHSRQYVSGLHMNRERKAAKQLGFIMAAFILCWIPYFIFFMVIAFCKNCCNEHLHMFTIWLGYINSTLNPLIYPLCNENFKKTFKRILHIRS

B1: Hex-[Cys(tMeBn(DOTA-AET))-Pro-Pro-Thr-Gln-Phe-Cys]-OH (3BP-3554) (peptide)
peptide: CPPTQFC
modifications: here or on the partner: N-terminal hexanoyl (Hex); Cys1 and Cys7 cyclised through tMeBn carrying DOTA-AET; free C-terminal acid (-OH)
For B1, the % Inhibition of Specific Binding in test [1] was 4%; in test [2], 7%; in test [3] it was 0%; in test [4], -5%; in test [5] it was -5%; in test [6] it was 1%. For the same molecule, the % Inhibition of Specific Binding in test [7] amounted to 6%.

B2: Hex-[Cys(tMeBn(DOTA-PP))-Pro-Pro-Thr-Gln-Phe-Cys]-Asp-NH2 (3BP-3407) (peptide)
peptide: CPPTQFCD
modifications: here or on the partner: N-terminal hexanoyl (Hex); Cys1 and Cys7 cyclised through tMeBn carrying DOTA-PP; C-terminal amide
With B2, the % Inhibition of Specific Binding was 11% in test [1]; -4% in test [2]; -2% in test [3]; -8% in test [4]; 3% in test [5]; 16% in test [6]. Moreover, in test [7], the % Inhibition of Specific Binding is -18%.
